One experiment deals with HLA-B*4403 (human). In words: competition with labeled probe peptide, purified HLA class I.
Another experiment addresses HLA-B*4001 (human). The experiment is described as above.

The values that follow come from patent publication US20060094649A1.

As usually defined, the IC50 is the midpoint of a concentration-inhibition curve. Read a high IC50 as weaker potency. Turning to “SEQ ID NO 717, 7-mer of MAGE2 at position 234 (printed as WEELSML) (peptide)”, the results for the IC50 with HLA-B*4403 (human) and with HLA-B*4001 (human) were 2.01 µM and 10.4 µM, respectively.
